Data on 5 molecules can be found in patent US20240141060A1 (Novartis, published 2024).

Test [1] concerns the target T1, Cynomolgus CD73/NT5E Protein (His Tag) (Sino Biological Cat: 90192-C08H-50) (cynomolgus monkey, UniProt A0A2K5V5U7 27-547).
T1 construct: treated as one protein; also called Cynomolgus CD73-His; recombinant cynomolgus monkey CD73; not shown: His tag
T1 sequence: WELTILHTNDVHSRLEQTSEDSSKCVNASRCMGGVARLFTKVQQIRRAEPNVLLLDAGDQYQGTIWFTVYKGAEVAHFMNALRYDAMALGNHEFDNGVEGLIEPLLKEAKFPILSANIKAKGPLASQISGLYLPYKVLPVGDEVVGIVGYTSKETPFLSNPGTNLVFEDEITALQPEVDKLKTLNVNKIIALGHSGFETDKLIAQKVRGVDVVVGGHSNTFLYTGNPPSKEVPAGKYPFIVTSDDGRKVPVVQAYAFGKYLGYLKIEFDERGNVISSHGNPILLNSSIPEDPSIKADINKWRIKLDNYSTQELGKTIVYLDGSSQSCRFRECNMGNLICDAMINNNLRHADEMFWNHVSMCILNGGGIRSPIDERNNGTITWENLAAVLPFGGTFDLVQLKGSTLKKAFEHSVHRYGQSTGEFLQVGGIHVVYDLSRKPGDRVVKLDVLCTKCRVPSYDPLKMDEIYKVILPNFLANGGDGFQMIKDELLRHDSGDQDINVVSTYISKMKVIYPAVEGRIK
Briefly: ForteBio Octet RED384 (BLI), whole IgG on AHQ sensors, 100 nM antigen, 1:1 model. As to the method:
(§1) Briefly, ForteBio affinity measurements were performed by loading IgGs on-line onto AHQ sensors. Sensors were equilibrated off-line in assay buffer for 30 min and then monitored on-line for 60 seconds for baseline establishment. Sensors with loaded IgGs were exposed to 100 nM antigen for 3 minutes, and afterwards were transferred to assay buffer for 3 min for off-rate measurement. All kinetics were analyzed using the 1:1 binding model. Antigens used were: [0438] Human CD73-His: Recombinant Human 5′-Nucleotidase/CD73 Protein, CF from R&D Systems Cat: 5795-EN [0439] Mouse CD73-His: Recombinant Mouse 5′-Nucleotidase/CD73 Protein, CF from R&D Systems Cat: 4488-EN [0440] Cynomolgus CD73-His: Cynomolgus CD73/NT5E Protein (His Tag) from Sino Biological Cat: 90192-C08H-50
(BLI is a label-free optical method that tracks binding on a fibre tip over time.)

Test [2] has as its target T2, Recombinant Mouse 5′-Nucleotidase/CD73 Protein, CF (R&D Systems Cat: 4488-EN) (mouse, UniProt Q61503 29-549, limits assumed).
T2 construct: Bought protein; also called Mouse CD73-His; recombinant mouse CD73; not shown: His tag
T2 sequence (looked up): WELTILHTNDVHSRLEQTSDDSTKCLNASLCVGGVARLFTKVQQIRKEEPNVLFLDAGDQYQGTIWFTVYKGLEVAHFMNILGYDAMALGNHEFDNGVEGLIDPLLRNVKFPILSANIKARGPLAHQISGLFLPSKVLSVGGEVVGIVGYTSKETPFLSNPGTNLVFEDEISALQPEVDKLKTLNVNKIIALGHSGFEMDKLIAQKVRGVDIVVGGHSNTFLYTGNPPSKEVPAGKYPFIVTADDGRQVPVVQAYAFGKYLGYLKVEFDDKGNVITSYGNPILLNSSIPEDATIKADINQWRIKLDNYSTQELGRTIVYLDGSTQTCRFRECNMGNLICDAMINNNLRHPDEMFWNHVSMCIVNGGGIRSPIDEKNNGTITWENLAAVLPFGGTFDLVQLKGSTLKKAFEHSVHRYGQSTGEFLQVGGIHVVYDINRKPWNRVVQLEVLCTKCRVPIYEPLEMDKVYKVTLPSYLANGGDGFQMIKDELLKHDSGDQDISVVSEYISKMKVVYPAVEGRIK
Nature of the test: ForteBio Octet RED384 (BLI), whole IgG on AHQ sensors, 100 nM antigen, 1:1 model; * value approaching upper limit for Kd measurement. The method, then: as §1

Test [3] concerns the target T3, Recombinant Human 5′-Nucleotidase/CD73 Protein, CF (R&D Systems Cat: 5795-EN) (human, UniProt P21589 27-547).
T3 construct: Bought protein; also called Human CD73-His; recombinant human CD73; not shown: His tag
T3 sequence (looked up): T1 sequence with T199M, A350T, I466V
The test is described as above. The method, then: as §1

Test [4] deals with T4, recombinant rat CD73 (Sino Biological 80375-R08H) (rat, UniProt P21588 29-551).
T4 construct: Bought protein; also called rCD73; rat CD73/His
T4 sequence (looked up): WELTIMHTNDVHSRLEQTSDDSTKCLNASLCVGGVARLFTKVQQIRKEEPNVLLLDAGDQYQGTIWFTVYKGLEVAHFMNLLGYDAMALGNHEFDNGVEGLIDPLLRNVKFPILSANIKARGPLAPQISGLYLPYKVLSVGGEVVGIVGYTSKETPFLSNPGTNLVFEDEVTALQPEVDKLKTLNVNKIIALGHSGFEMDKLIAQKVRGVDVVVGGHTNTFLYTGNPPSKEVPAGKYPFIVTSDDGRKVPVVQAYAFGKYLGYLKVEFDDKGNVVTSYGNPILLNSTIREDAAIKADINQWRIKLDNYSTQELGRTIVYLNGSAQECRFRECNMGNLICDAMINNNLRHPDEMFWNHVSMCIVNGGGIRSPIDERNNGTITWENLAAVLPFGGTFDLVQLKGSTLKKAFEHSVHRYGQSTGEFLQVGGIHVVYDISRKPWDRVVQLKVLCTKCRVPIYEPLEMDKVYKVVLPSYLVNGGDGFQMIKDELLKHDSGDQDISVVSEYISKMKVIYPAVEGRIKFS
Nature of the test: Biacore SPR, Fab captured by anti-human Fab on CM5 chip, CD73 0.01-90 nM as analyte. As to the method: (§2) Proteins used were as follows: recombinant human CD73 (R&D Systems 5795-EN); recombinant cynomolgus monkey CD73 (Sino Biological 90912-C08H); recombinant mouse CD73 (R&D Systems 4488-EN); and recombinant rat CD73 (Sino Biological 80375-R08H). Anti-human Fab (GE Healthcare Life Sciences) was immobilized on all 4 flow cells (Fc) on a CM5 chip (GE). […] 0.01 nM to 90 nM CD73 (3-fold dilution series) was flown over all 4 Fcs. All samples were diluted in running buffer HBS-EP+(pH 7.4, 0.01 M HEPES, 150 mM NaCl, 3 mM EDTA and 0.05% (v/v) P20).

Test [5] deals with T1, Cynomolgus CD73/NT5E Protein (His Tag) …. The description is as above. The method, then:
as §2

For test [6], the target named is T2, Recombinant Mouse 5′-Nucleotidase/CD73 …. The description is as above. The method, then:
as §2

In test [7] the target is T3, Recombinant Human 5′-Nucleotidase/CD73 …. The description is as above. The method, then:
as §2

The target in test [8] is T4, recombinant rat CD73 (Sino Biological …). Nature of the test: Biacore SPR, Fab captured by anti-human Fab on CM5 chip, CD73 as analyte. The method, then: as §2
For orientation: SPR reads the build-up and loss of mass on a sensor chip optically.

In test [9] the target is T2, Recombinant Mouse 5′-Nucleotidase/CD73 …. The description is as above. The method, then:
as §2

The target of test [10] is T4, recombinant rat CD73 (Sino Biological …). Nature of the test: Biacore SPR, His-tagged CD73 captured by anti-His antibody on CM5 chip, Fab as analyte. As to the method:
(§3) The anti-His Ab was directly immobilized onto a CM5 chip surface by amine coupling. The His-tagged human CD73/His, cynomolgus monkey CD73/His, mouse CD73/His or rat CD73/His was flowed over and captured at a desired resonance unit (RU) for an Rmax of 20. Antibody analyte concentrations in serial dilutions of IgG or Fab were flowed over at 60 μL/min. The sensorgrams were analyzed using the manufacturer's software for a 1:1 binding model.

Test [11] addresses T2, Recombinant Mouse 5′-Nucleotidase/CD73 …. The description is as above. The method, then:
as §3

Test [12] addresses T4, recombinant rat CD73 (Sino Biological …). Nature of the test: Biacore SPR, His-tagged CD73 captured by anti-His antibody on CM5 chip, antibody as analyte. As to the method:
as §3

Test [13] has as its target T2, Recombinant Mouse 5′-Nucleotidase/CD73 …. The description is as above. As to the method: as §3
Test [14] concerns the target T1, Cynomolgus CD73/NT5E Protein (His Tag) …. Briefly: Biacore SPR, His-tagged CD73 captured by anti-His antibody on CM5 chip, IgG as analyte, 1:1 model. As to the method: as §3
(§4) Therefore, given that 1:1 bidentate binding will favor avidity, the whole Ab affinities were used rather than Fab measurements.

For test [15], the target named is T3, Recombinant Human 5′-Nucleotidase/CD73 …. Described as above. The method, then: as §3, §4

Where a chain is given by its changes, count along the chain named. Names may count otherwise.

B1: 350.C (antibody, V domains shown)
VH: QVQLQESGPGLVKPSETLSLTCTVSGGSIERYYWSWIRQPPGKGLEWIGYIYGRGSTNYNPSLKSRVTISVDTSKNQFSLKLSSVTAADTAVYYCARESQESPYNNWFDPWGQGTLVTVSS
VL: DIQMTQSPSSVSASVGDRVTITCRASQGISSWLAWYQQKPGKAPKLLIYAASSLQSGVPSRFSGSGSGTDFTLTISSLQPEDFATYYCQQGNSFPRTFGGGTKVEIK
notes: also called 350 IgG1 format
Broadly, the Kd is a measure of binding affinity in units of concentration. Regarding B1, the Kd came to 0.635 nM in [1], 0.409 nM in test [2] and 0.248 nM in test [3].

B2: Fab 350 (Fab, V domains shown)
VH: B1 VH
VL: DIQMTQSPSSVSASVGDRVTITCRASQGISSWLAWYQQKPGKAPKLLIYAASSLQSGVPSRFSGSGSGTDFTLTISSLQPEDFATYYCQQGNSFPRTFGGGTKVEIKR
notes: Made by a stop between the two proline residues above the core hinge region of the heavy chain; also called 350 Fab; Fab of mAb 350
Regarding B2, the Kd in test [4] is 28.3 nM; in test [5], at most 0.1 nM; in test [6] it was 17.3 nM; in test [7], at most 0.1 nM.

B3: Fab 373 (Fab, V domains shown)
VH: EVQLLESGGGLVQPGGSLRLSCAASGFTFHRYAMSWVRQAPGKGLEWVSAISGSGMNTYYADSVKGRFTISRDNSKNTLYLQMNSLRAEDTAVYYCARGGLYGSGSYLSDFDLWGRGTLVTVSS
VL: EIVLTQSPATLSVSPGERATLSCRASQSVGSNLAWYQQKPGQAPRLLIYGASTRATGIPARFSGSGSGTEFTLTISSLQSEDFAVYYCQQHNAFPYTFGGGTKVEIKR
On to B3, for which the Kd in [5] is 9.46 nM; in test [7], 13 nM. The binding result in test [8] and in test [9] was “no binding (tested: 0.01 nM to 90 nM CD73)” each time.

B4: 373.A Fab (Fab, V domains shown)
VH: B3 VH
VL: B3 VL
Turning to B4, the binding result in test [10] and in test [11] was “no binding” each time.

B5: anti-CD73 antibody 373.A (antibody, human IgG4 S228P, kappa, V domains shown)
VH: B3 VH
VL: B3 VL
notes: IgG4 S228P format
With B5, the binding result in [12] and in [13] was “no binding” throughout. Besides, the figures for the Kd in [14] and in test [15] were 0.068 nM and 0.991 nM, respectively.
